The results in this text go back to article PMC8860598.

Common to all, as to assay: EMSA
Series [1] deals with T1, Sen1 HD T1623V (Saccharomyces cerevisiae, UniProt Q00416 1095-1905, T1623V).
T1 sequence: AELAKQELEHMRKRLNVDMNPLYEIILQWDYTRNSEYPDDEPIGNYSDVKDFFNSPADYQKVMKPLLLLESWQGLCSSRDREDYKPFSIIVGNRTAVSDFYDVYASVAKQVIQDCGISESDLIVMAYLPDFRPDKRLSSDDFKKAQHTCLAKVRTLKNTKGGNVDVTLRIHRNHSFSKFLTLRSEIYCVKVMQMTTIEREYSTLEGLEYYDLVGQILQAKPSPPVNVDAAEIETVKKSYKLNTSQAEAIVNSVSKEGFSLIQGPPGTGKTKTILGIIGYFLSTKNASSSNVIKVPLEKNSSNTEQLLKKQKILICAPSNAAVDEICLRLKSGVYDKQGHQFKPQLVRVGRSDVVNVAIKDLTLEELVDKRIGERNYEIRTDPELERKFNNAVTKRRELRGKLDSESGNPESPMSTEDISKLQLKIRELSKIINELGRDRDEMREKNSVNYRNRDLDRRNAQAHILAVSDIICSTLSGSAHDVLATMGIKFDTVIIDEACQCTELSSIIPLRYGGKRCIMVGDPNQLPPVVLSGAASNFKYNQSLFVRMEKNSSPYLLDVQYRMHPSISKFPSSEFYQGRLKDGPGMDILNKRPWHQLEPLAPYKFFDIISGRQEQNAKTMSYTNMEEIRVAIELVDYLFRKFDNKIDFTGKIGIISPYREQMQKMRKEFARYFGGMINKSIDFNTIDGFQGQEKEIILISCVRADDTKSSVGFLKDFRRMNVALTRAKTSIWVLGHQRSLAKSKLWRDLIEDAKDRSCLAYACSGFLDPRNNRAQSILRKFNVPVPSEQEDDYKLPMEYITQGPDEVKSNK

Series [2] addresses T2, Sen1 HD wt (Saccharomyces cerevisiae, UniProt Q00416 1095-1905).
T2 sequence: T1 sequence with V529T

The next series addresses T3, Sen1 HD T1623E (Saccharomyces cerevisiae, UniProt Q00416 1095-1905, T1623E).
T3 sequence: T1 sequence with V529E

Series [3] deals with T1, Sen1 HD T1623V. The source holds these as a separate data set.
In series [4] the target is T2, Sen1 HD wt. The source holds these as a separate data set.

Positions count from the first letter of the chain named. Where two headings read alike, the source gives them in different places.

In the case of UUCAUUUCAGACCAGCACCCACUCACUACAACUCACGACCAGGC (ssRNA) [DL3508 (called 40-mer RNA; printed sequence is 44 nt)], the Kd in the series with Sen1 HD T1623V [1] was found to be 12.7 nM; with Sen1 HD wt [2], 13.1 nM; in the series with Sen1 HD T1623E it was 100 nM; in the series with Sen1 HD T1623V [3] it was 8.1 nM; with Sen1 HD wt [4] it was 6.4 nM.
